The supplement of paper PMC7877785
± gives the uncertainty stated by the source.

Test: self-splicing fitness, log relative to wild type (ln ratio); higher = more splicing; Tetrahymena group I intron in knt gene, E. coli kanamycin selection, DiMSum; sequences stand for … in CUCUCU…GGAGGGAAAAGUUAUCAGGCAUGCACCUGGUAGCUAGUCUUUAAACCAAUAGAUUGCAUCGGUUUAAAAGGCAAGACCGUCAAAUUGCGGGAAAGGGGUCAACAGCCGUUCAGUACCAAGUCUCAGGGGAAACUUUGAGAUGGCCUUGCAAAGGGUAUGGUAAUAAGCUGACGGACAUGGUCCUAACCACGCAGCCAAGUCCUAAGUCAACAGAUCUUCUGUUGAUAUGGAUGCAGUUCACAGACUAAAUGUCGGUCGGGGAAGAUGUAUUCUUCUCAUAAGAUAUAGUCGGACCUCUCCUUAAUGGGAGCUAGCGGAUGAAGUGAUGCAACACUGGAGCCGCUGGGAACUAAUUUGUAUGCGAAAGUAUAUUGAUUAGUUUUGGAGUACUCGUGGUCG
Method in brief: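 Pooled colonies went to amplicon sequencing on an Illumina HiSeq 2500 after six replicate transformations. The plates were LB agar with 100 μg/mL carbenicillin, 50 μM IPTG and 0.2% rhamnose, with or without 25 μg/mL kanamycin, incubated overnight at 37°C or 30°C. The E. coli BL21(DE3) library had all eight P1ex-region intron nucleotides randomised, the intron placed in the knt kanamycin-resistance gene on pET-22b(+). DiMSum fitness is the error-weighted combination of replicate fold changes, kanamycin against none, normalised to wild type.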

Row | Sequence | self-splicing fitness (ln) (30 °C) | self-splicing fitness (ln) (37 °C)
1 | GUAGAGCAAUAUUACGCUCU | -3.31 ± 0.43 | –
2 | GUAGAGCAAUAUUACGGACG | -2.8 ± 0.36 | -1 ± 0.3
3 | GUAGAGCAAUAUUACGGAGG | – | -1.69 ± 0.43
4 | GUAGAGCAAUAUUACGGGGG | -2.82 ± 0.26 | -2.22 ± 0.3
5 | GUAGAGCAAUAUUACGGUAG | -2.36 ± 0.12 | -1.24 ± 0.13
6 | GUAGAGCAAUAUUACGUAGA | -4.79 ± 0.41 | -1.55 ± 0.25
7 | GUAGAGCAAUAUUACGUGAA | -1.86 ± 0.17 | -1.87 ± 0.2
8 | GUAUAGCAAUAUUACGAAGU | -3.25 ± 0.21 | -1.81 ± 0.18
9 | GUAUAGCAAUAUUACGAAUC | -2.37 ± 0.22 | -0.29 ± 0.17
10 | GUAUAGCAAUAUUACGACUU | -0.268 ± 0.072 | -0.0307 ± 0.085
11 | GUAUAGCAAUAUUACGAGUA | -1.18 ± 0.19 | -1.77 ± 0.22
12 | GUAUAGCAAUAUUACGAGUG | -2.23 ± 0.15 | -2.47 ± 0.22
13 | GUAUAGCAAUAUUACGAUCG | -1.69 ± 0.33 | -0.878 ± 0.31
14 | GUAUAGCAAUAUUACGCAUU | -2 ± 0.17 | -2.28 ± 0.29
15 | GUAUAGCAAUAUUACGCUGG | -2.35 ± 0.17 | -1.01 ± 0.18
16 | GUAUAGCAAUAUUACGGGCG | -2.27 ± 0.17 | -0.207 ± 0.18
17 | GUAUAGCAAUAUUACGGGCU | -2.86 ± 0.17 | -1.38 ± 0.19
18 | GUAUAGCAAUAUUACGGGUU | -3.05 ± 0.29 | -2.07 ± 0.27
19 | GUAUAGCAAUAUUACGGUGA | -2.53 ± 0.25 | -0.645 ± 0.18
20 | GUAUAGCAAUAUUACGUAGG | -3.15 ± 0.16 | -1.47 ± 0.14
21 | GUAUAGCAAUAUUACGUAGU | -2.17 ± 0.096 | -1.26 ± 0.095
22 | GUAUAGCAAUAUUACGUCAG | -3.96 ± 0.35 | -1.08 ± 0.18
23 | GUAUAGCAAUAUUACGUGGC | -3.62 ± 0.33 | -2.09 ± 0.28
24 | GUAUAGCAAUAUUACGUGUA | -1.79 ± 0.2 | -1.92 ± 0.18
25 | GUAUAGCAAUAUUACGUUGA | -2.87 ± 0.21 | -1.41 ± 0.18
26 | GUCAAGCAAUAUUACGAAAA | -1.95 ± 0.41 | -2.53 ± 0.31

Row | Sequence | self-splicing fitness (ln) (30 °C) | self-splicing fitness (ln) (37 °C)
27 | GUCAAGCAAUAUUACGAACC | -3.76 ± 0.42 | –
28 | GUCAAGCAAUAUUACGAAUU | -3.06 ± 0.18 | -1.82 ± 0.17
29 | GUCAAGCAAUAUUACGACGG | -4.06 ± 0.37 | -1.71 ± 0.34
30 | GUCAAGCAAUAUUACGAGCG | -2.72 ± 0.16 | -1.2 ± 0.18
31 | GUCAAGCAAUAUUACGAGUA | -3.43 ± 0.19 | -1.98 ± 0.15
32 | GUCAAGCAAUAUUACGAUCG | -3.39 ± 0.19 | -2.88 ± 0.23
33 | GUCAAGCAAUAUUACGAUGU | -1.75 ± 0.042 | -0.404 ± 0.055
34 | GUCAAGCAAUAUUACGCAGG | -4.19 ± 0.36 | -2.3 ± 0.3
35 | GUCAAGCAAUAUUACGCCCA | -1.4 ± 0.15 | -1.11 ± 0.14
36 | GUCAAGCAAUAUUACGCCGG | – | -0.94 ± 0.36
37 | GUCAAGCAAUAUUACGCUAU | -4.05 ± 0.17 | -3.81 ± 0.15
38 | GUCAAGCAAUAUUACGCUGC | – | -3.33 ± 0.27
39 | GUCAAGCAAUAUUACGGAAG | -3.05 ± 0.15 | -1.68 ± 0.17
40 | GUCAAGCAAUAUUACGGCGC | -0.751 ± 0.11 | -0.437 ± 0.14
41 | GUCAAGCAAUAUUACGGCUA | -1.28 ± 0.073 | -0.658 ± 0.066
42 | GUCAAGCAAUAUUACGGGGG | -4.02 ± 0.46 | -2.86 ± 0.34
43 | GUCAAGCAAUAUUACGGGUA | -2.91 ± 0.12 | -1.45 ± 0.076
44 | GUCAAGCAAUAUUACGGGUU | -3.26 ± 0.11 | -2.31 ± 0.12
45 | GUCAAGCAAUAUUACGGUCA | -1.24 ± 0.12 | -0.86 ± 0.12
46 | GUCAAGCAAUAUUACGGUGG | -4.45 ± 0.15 | -3.19 ± 0.17
47 | GUCAAGCAAUAUUACGUAAU | -0.836 ± 0.044 | -0.385 ± 0.061
48 | GUCAAGCAAUAUUACGUACC | -0.597 ± 0.3 | -1.73 ± 0.43
49 | GUCAAGCAAUAUUACGUCUC | -0.66 ± 0.076 | -0.461 ± 0.097
50 | GUCAAGCAAUAUUACGUGAU | -4.06 ± 0.23 | -3.23 ± 0.27
51 | GUCAAGCAAUAUUACGUUCU | -1.88 ± 0.07 | -1.3 ± 0.087
52 | GUCAAGCAAUAUUACGUUGA | -2.64 ± 0.21 | -3.51 ± 0.4

Row | Sequence | self-splicing fitness (ln) (30 °C) | self-splicing fitness (ln) (37 °C)
53 | GUCCAGCAAUAUUACGACCU | -2.17 ± 0.19 | -1.13 ± 0.2
54 | GUCCAGCAAUAUUACGAGAC | -3.46 ± 0.23 | -1.82 ± 0.23
55 | GUCCAGCAAUAUUACGAGCC | -1.18 ± 0.15 | -0.519 ± 0.16
56 | GUCCAGCAAUAUUACGAUUC | -0.315 ± 0.055 | 0.0606 ± 0.075
57 | GUCCAGCAAUAUUACGCGAC | -3.04 ± 0.19 | -2.86 ± 0.21
58 | GUCCAGCAAUAUUACGCGAG | -0.816 ± 0.088 | -0.322 ± 0.1
59 | GUCCAGCAAUAUUACGCGUU | -0.325 ± 0.078 | 0.304 ± 0.1
60 | GUCCAGCAAUAUUACGCUAC | -4.03 ± 0.16 | -2.96 ± 0.14
61 | GUCCAGCAAUAUUACGGAAU | -0.712 ± 0.079 | 0.0755 ± 0.094
62 | GUCCAGCAAUAUUACGGAGA | -0.714 ± 0.096 | 0.585 ± 0.11
63 | GUCCAGCAAUAUUACGGCCU | -3.36 ± 0.2 | -1.14 ± 0.13
64 | GUCCAGCAAUAUUACGGGUU | -1.58 ± 0.07 | -1.03 ± 0.073
65 | GUCCAGCAAUAUUACGGUAG | -2.08 ± 0.083 | -1.61 ± 0.096
66 | GUCCAGCAAUAUUACGGUAU | -0.797 ± 0.052 | 0.0993 ± 0.064
67 | GUCCAGCAAUAUUACGGUCA | -0.244 ± 0.07 | -0.0837 ± 0.072
68 | GUCCAGCAAUAUUACGUCAC | -2.41 ± 0.14 | -0.6 ± 0.13
69 | GUCCAGCAAUAUUACGUCGU | -0.0754 ± 0.066 | -0.486 ± 0.088
70 | GUCCAGCAAUAUUACGUCUC | 0.725 ± 0.087 | -0.134 ± 0.087
71 | GUCCAGCAAUAUUACGUGGA | -3.34 ± 0.21 | -1.91 ± 0.19
72 | GUCCAGCAAUAUUACGUGGC | -3.97 ± 0.24 | -3.46 ± 0.39
73 | GUCGAGCAAUAUUACGAAUA | -2.42 ± 0.36 | -2.1 ± 0.34
74 | GUCGAGCAAUAUUACGACAG | -2.66 ± 0.23 | -1.75 ± 0.28
75 | GUCGAGCAAUAUUACGACAU | -0.997 ± 0.015 | -0.465 ± 0.033
76 | GUCGAGCAAUAUUACGACUG | -3.17 ± 0.45 | -0.232 ± 0.18
77 | GUCGAGCAAUAUUACGAUCU | -2.87 ± 0.18 | -0.451 ± 0.12
